The text below walks through data of paper PMC8509413.

Assay [1] deals with wild-type equine lutropin/choriogonadotropin receptor (eLH/CGR) (equine).
For assay [2] the target is unchanged. This is another data set of the same source.

For the substance “recombinant equine chorionic gonadotropin (rec-eCGβ/α) (from UniProt P08751 21-169; P01220 25-120) (ligand)”, the EC50 of rec-eCG-stimulated cAMP accumulation (HTRF) in transiently transfected CHO-K1 cells, 30 min was 0.914 µg/mL with eLH/CGR-R464H (equine); 0.0959 µg/mL with eLH/CGR-Y546F (equine); 0.135 µg/mL with eLH/CGR-D405N (equine); 0.0583 µg/mL with eLH/CGR-D564G (equine); 0.0244 µg/mL with eLH/CGR-L457R (equine); 0.0198 µg/mL with eLH/CGR-M398T (equine). The EC50 of rec-eCG-stimulated cAMP accumulation (HTRF) in transiently transfected CHO-K1 cells, 30 min in the assay with eLH/CGR-D578Y (equine) amounted to 0.0479 µg/mL. The EC50 of rec-eCG-stimulated cAMP accumulation (HTRF) in transiently transfected CHO-K1 cells, 30 min (separate experiment of Table 2) in assay [1] was found to be 0.0303 µg/mL. The EC50 of rec-eCG-stimulated cAMP accumulation (HTRF) in transiently transfected CHO-K1 cells, 30 min (experiment of Table 1) in assay [2] amounted to 0.0442 µg/mL.
